The values below come from patent publication US20150329626A1 (Eli Lilly, published 2015).

For one assay, the target named is T1, human Ang2 (human, UniProt O15123 19-496).
T1 construct: also called hAng2; human angiopoietin-2
T1 sequence: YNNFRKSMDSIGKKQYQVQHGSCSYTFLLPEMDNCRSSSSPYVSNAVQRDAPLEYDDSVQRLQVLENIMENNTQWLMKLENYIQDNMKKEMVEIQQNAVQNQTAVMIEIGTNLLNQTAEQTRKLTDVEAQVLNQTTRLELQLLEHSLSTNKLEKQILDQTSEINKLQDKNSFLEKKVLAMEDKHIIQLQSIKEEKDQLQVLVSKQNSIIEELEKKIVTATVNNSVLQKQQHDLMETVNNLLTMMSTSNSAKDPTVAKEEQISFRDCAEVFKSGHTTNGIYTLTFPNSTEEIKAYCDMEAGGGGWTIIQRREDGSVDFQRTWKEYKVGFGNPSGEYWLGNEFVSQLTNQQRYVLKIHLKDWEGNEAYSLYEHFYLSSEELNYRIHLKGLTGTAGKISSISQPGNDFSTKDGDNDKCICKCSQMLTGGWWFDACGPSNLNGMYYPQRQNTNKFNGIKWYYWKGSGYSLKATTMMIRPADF
The experiment in a line: Biacore SPR, 25 C, compound captured on Protein A, Ang2 as analyte.

A further assay concerns the target T2, cyno Ang2 (cynomolgus monkey, UniProt A0A2K5VNX6 19-496).
T2 construct: also called cynomolgus monkey Ang2
T2 sequence: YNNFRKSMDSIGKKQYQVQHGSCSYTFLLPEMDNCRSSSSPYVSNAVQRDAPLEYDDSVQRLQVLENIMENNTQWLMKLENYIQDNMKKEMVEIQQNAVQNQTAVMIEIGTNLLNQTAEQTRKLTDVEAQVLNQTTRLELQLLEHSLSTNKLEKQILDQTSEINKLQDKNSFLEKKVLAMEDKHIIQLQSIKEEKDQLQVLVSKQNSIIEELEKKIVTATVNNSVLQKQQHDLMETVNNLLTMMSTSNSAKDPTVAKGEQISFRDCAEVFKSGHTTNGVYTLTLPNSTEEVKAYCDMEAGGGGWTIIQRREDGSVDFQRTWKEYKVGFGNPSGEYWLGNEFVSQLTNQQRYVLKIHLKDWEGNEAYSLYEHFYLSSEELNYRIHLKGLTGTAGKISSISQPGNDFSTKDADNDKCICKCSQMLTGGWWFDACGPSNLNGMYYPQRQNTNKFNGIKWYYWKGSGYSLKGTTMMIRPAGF
The experiment in a line: Biacore SPR, 37 C, n = 3, compound captured on Protein A.

In assay [1] the target is T3, human VEGFR2 extracellular domain (human, UniProt P35968 20-764).
T3 construct: also called hVEGFR2-ECD; human VEGFR2-ECD
Nature of the assay: Biacore SPR, 25 C, compound captured on Protein A, VEGFR2-ECD as analyte.

Assay [2] addresses T3, human VEGFR2 extracellular domain. Nature of the assay: Biacore SPR, 37 C, n = 3, compound captured on Protein A, VEGFR2-ECD as analyte.
Assay [3] has as its target T4, dog VEGFR2 extracellular domain (dog, UniProt Q2XPT7 20-763).
T4 construct: extracellular domain
The description is as above.

Assay [4] has as its target T5, rabbit VEGFR2 extracellular domain (rabbit, UniProt G1SN50 20-764).
T5 construct: extracellular domain
The assay is described as above.

The target in assay [5] is T6, cyno VEGFR2 extracellular domain (cynomolgus monkey, UniProt A0A2K5VE63 20-764).
T6 construct: extracellular domain; also called cynomolgus monkey VEGFR2
The description is as above.

T6 sequence (A0A2K5VE63 entry or part of it): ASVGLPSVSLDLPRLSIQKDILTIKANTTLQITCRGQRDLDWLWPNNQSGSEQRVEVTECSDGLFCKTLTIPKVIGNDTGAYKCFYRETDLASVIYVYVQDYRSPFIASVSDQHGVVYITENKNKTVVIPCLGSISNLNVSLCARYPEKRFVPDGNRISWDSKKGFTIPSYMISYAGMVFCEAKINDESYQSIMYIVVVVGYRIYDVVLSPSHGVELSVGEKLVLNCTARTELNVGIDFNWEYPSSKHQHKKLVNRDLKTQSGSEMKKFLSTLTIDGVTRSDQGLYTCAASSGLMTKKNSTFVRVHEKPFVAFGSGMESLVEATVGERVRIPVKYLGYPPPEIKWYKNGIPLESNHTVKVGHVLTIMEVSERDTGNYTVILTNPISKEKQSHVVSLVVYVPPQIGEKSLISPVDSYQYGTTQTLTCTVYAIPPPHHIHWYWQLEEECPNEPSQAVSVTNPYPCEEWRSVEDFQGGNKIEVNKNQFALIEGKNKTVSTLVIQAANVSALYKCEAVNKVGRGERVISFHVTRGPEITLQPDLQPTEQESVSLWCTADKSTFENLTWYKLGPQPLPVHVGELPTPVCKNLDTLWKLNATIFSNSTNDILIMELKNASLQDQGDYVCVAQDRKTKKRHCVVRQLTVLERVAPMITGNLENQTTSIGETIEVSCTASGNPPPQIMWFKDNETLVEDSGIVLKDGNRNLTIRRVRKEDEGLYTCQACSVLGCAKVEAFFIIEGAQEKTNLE
T5 sequence (G1SN50 entry or part of it): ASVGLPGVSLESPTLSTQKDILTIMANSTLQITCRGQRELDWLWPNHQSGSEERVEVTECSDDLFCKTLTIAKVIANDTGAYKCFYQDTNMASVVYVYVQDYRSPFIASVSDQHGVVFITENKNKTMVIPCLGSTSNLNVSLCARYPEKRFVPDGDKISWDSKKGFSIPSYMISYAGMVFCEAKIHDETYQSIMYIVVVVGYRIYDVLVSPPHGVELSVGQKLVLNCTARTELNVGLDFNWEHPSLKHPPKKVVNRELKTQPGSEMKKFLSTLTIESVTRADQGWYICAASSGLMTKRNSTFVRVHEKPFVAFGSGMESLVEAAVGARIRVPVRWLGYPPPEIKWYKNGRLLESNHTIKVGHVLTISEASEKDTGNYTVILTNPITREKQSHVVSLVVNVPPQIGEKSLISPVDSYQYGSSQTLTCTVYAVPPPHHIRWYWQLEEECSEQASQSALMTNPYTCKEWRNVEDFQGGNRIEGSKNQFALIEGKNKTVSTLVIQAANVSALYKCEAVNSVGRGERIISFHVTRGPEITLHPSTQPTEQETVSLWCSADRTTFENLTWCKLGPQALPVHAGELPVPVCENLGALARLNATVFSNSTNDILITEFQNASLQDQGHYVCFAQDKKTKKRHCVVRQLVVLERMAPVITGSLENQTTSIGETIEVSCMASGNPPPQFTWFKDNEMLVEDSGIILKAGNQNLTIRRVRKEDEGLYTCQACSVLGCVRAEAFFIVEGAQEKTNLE
T3 sequence (P35968 20-764): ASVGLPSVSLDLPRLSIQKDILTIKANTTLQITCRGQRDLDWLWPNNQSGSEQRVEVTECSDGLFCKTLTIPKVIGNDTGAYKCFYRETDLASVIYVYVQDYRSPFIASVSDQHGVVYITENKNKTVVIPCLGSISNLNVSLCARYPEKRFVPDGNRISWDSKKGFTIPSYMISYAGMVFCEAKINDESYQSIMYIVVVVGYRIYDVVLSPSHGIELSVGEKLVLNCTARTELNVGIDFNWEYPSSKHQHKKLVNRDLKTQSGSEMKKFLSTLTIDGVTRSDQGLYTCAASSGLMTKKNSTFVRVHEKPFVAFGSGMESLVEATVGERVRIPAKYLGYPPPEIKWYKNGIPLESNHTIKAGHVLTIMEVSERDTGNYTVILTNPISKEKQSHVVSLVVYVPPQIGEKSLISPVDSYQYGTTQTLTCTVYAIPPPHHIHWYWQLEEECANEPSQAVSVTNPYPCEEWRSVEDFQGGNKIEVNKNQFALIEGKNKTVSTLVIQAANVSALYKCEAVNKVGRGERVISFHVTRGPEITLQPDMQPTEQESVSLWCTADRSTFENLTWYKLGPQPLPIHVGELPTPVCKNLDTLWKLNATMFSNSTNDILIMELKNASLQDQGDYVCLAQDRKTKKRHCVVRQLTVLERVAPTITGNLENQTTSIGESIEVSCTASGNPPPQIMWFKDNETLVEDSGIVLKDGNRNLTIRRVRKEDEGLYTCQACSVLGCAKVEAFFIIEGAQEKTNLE

B1: Compound F (bispecific antibody, human IgG4 S228P, kappa, F234A L235A)
heavy: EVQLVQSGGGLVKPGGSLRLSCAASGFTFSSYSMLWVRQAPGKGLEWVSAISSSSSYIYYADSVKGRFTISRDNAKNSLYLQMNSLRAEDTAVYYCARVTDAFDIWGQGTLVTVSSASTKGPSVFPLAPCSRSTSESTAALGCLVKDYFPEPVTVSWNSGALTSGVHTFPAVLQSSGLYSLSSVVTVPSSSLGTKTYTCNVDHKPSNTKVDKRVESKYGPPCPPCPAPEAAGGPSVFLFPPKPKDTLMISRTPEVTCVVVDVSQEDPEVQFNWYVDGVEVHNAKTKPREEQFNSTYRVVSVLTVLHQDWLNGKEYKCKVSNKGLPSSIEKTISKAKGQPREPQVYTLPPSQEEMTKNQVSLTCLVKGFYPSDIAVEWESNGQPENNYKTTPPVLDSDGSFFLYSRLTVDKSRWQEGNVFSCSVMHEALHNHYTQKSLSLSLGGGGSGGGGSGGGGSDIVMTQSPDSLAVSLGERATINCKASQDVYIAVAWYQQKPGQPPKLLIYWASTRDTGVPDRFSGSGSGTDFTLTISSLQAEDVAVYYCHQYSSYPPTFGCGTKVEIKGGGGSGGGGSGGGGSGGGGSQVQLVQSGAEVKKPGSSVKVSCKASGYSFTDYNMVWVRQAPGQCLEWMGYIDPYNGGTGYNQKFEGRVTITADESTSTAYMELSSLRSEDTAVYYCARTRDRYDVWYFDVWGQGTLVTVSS
light: DIQMTQSPSSVSASVGDRVTITCRASRGIDNWLTWYQQKPGKAPKLLIYEASSLQSGVPSRFSGSGSGTDFTLTISSLQPEDFATYYCQQAKAFPPTFGGGTKVDIKRTVAAPSVFIFPPSDEQLKSGTASVVCLLNNFYPREAKVQWKVDNALQSGNSQESVTEQDSKDSTYSLSSTLTLSKADYEKHKVYACEVTHQGLSSPVTKSFNRGEC
notes: also called Cmpd F
As for B1, the dissociation constant (Kd) with human Ang2 came out at 0.673 nM; with cyno Ang2, 0.3 nM; in assay [1], 0.721 nM; in assay [2], 4.6 nM; in assay [3], 37 nM; in assay [4], 6.1 nM. In assay [5], binding was characterised by a dissociation constant (Kd) of 3.3 nM. For the same molecule, the koff worked out at 0.000105 s⁻¹ with human Ang2; 0.00028 s⁻¹ in the assay with cyno Ang2; 1.8e-05 s⁻¹ in assay [1]; 0.00012 s⁻¹ in assay [2]; 0.0015 s⁻¹ in assay [3]; 0.00023 s⁻¹ in assay [4]. In addition, the off-rate constant (koff) in assay [5] is 0.00011 s⁻¹. Further, the kon worked out at 156000 M⁻¹ s⁻¹ with human Ang2; 960000 M⁻¹ s⁻¹ in the assay with cyno Ang2; 25000 M⁻¹ s⁻¹ in assay [1]; 25000 M⁻¹ s⁻¹ in assay [2]; 41000 M⁻¹ s⁻¹ in assay [3]; 38000 M⁻¹ s⁻¹ in assay [4]. This molecule showed a kon in assay [5] of 34000 M⁻¹ s⁻¹.
